# Results from the supplement of paper PMC9112550, “Optimization of the antimicrobial peptide Bac7 by deep mutational scanning” (BMC Biology, 2022).
# Tested on: Escherichia coli TOP10
# Test: shrunken log2 fold change of peptide-encoding DNA abundance (4.5 h post-induction vs induction); higher = less antimicrobial activity (less host growth inhibition)
# Conditions: time post-induction: 4.5 h; library: site-saturation at positions 5, 18, 19, 20
# 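Also: peptides expressed intracellularly from a pBAD plasmid library in pooled LB shake-flask culture, induced with 0.3% L-arabinose, DNA abundance read by NGS, three biological replicates, DESeq2 with apeglm shrinkage.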
row,Sequence,shrunken log2 fold change
1,RRIRQRPPRLPRPRPRPMCCPRP,0.0301
2,RRIRQRPPRLPRPRPRPFESPRP,-0.00719
3,RRIRFRPPRLPRPRPRPCAQPRP,-0.077
4,RRIRKRPPRLPRPRPRPHMWPRP,-0.174
5,RRIRGRPPRLPRPRPRPRKIPRP,0.829
6,RRIRERPPRLPRPRPRPNHMPRP,-0.31
7,RRIRMRPPRLPRPRPRPYRTPRP,0.0313
8,RRIRDRPPRLPRPRPRPVYSPRP,0.0356
9,RRIRARPPRLPRPRPRPLNCPRP,-0.08
10,RRIRNRPPRLPRPRPRPSDCPRP,-0.483
11,RRIRARPPRLPRPRPRPFHEPRP,-0.166
12,RRIRARPPRLPRPRPRPDPTPRP,0.447
13,RRIRNRPPRLPRPRPRPYGIPRP,-0.00992
14,RRIRQRPPRLPRPRPRPRGPPRP,0.0418
15,RRIRCRPPRLPRPRPRPIIFPRP,-0.726
16,RRIRQRPPRLPRPRPRPLPLPRP,-0.287
17,RRIRHRPPRLPRPRPRPYNNPRP,-0.819
18,RRIRHRPPRLPRPRPRPLEKPRP,-0.1
19,RRIRLRPPRLPRPRPRPRNLPRP,-0.0507
20,RRIRERPPRLPRPRPRPPFDPRP,-0.0468
21,RRIRVRPPRLPRPRPRPMLLPRP,-0.322
22,RRIRDRPPRLPRPRPRPLEGPRP,0.0257

row,Sequence,shrunken log2 fold change
1,RRIRMRPPRLPRPRPRPGVTPRP,0.285
2,RRIRERPPRLPRPRPRPRQEPRP,0.315
3,RRIRNRPPRLPRPRPRPDRWPRP,0.00119
4,RRIRCRPPRLPRPRPRPVFKPRP,-0.355
5,RRIRPRPPRLPRPRPRPGYCPRP,-0.147
6,RRIRLRPPRLPRPRPRPTHAPRP,0.029
7,RRIRPRPPRLPRPRPRPIPIPRP,-0.065
8,RRIRERPPRLPRPRPRPWCCPRP,-0.244
9,RRIRRRPPRLPRPRPRPPMFPRP,0.26
10,RRIRGRPPRLPRPRPRPVERPRP,0.5
11,RRIRGRPPRLPRPRPRPEYDPRP,0.0795
12,RRIRPRPPRLPRPRPRPEDLPRP,0.0558
13,RRIRTRPPRLPRPRPRPCASPRP,0.184
14,RRIRPRPPRLPRPRPRPPDRPRP,0.583
15,RRIRIRPPRLPRPRPRPVIEPRP,-0.121
16,RRIRPRPPRLPRPRPRPAQKPRP,0.273
17,RRIRMRPPRLPRPRPRPCGSPRP,-0.0626
18,RRIRPRPPRLPRPRPRPWWRPRP,0.14
19,RRIRGRPPRLPRPRPRPMCYPRP,0.243
20,RRIRFRPPRLPRPRPRPRGLPRP,-0.0929
21,RRIRVRPPRLPRPRPRPWGHPRP,0.0373
22,RRIRWRPPRLPRPRPRPQARPRP,0.19

row,Sequence,shrunken log2 fold change
1,RRIRDRPPRLPRPRPRPKWRPRP,0.344
2,RRIRQRPPRLPRPRPRPVTWPRP,-0.073
3,RRIRWRPPRLPRPRPRPISNPRP,-0.0292
4,RRIRMRPPRLPRPRPRPSQIPRP,-0.03
5,RRIRRRPPRLPRPRPRPVSQPRP,0.264
6,RRIRWRPPRLPRPRPRPRDAPRP,0.632
7,RRIRWRPPRLPRPRPRPASLPRP,0.0313
8,RRIRPRPPRLPRPRPRPAKKPRP,0.0429
9,RRIRGRPPRLPRPRPRPIWTPRP,0.352
10,RRIRLRPPRLPRPRPRPSDKPRP,-0.179
11,RRIRNRPPRLPRPRPRPLWTPRP,-0.247
12,RRIRERPPRLPRPRPRPEQRPRP,0.32
13,RRIRMRPPRLPRPRPRPCTDPRP,-0.132
14,RRIRHRPPRLPRPRPRPIGPPRP,-0.00697
15,RRIRVRPPRLPRPRPRPQEWPRP,-0.0187
16,RRIRARPPRLPRPRPRPPKIPRP,0.327
17,RRIRDRPPRLPRPRPRPTQAPRP,0.017
18,RRIRARPPRLPRPRPRPTTCPRP,0.0733
19,RRIRFRPPRLPRPRPRPDDNPRP,-0.137
20,RRIRERPPRLPRPRPRPGVAPRP,0.146
21,RRIRWRPPRLPRPRPRPSEPPRP,-0.266
22,RRIRWRPPRLPRPRPRPHFQPRP,-0.183

row,Sequence,shrunken log2 fold change
1,RRIRQRPPRLPRPRPRPKEPPRP,0.0201
2,RRIRTRPPRLPRPRPRPQVWPRP,0.112
3,RRIRHRPPRLPRPRPRPYLGPRP,-0.403
4,RRIRNRPPRLPRPRPRPQKLPRP,-0.188
5,RRIRFRPPRLPRPRPRPHPAPRP,0.0971
6,RRIRVRPPRLPRPRPRPTGQPRP,0.526
7,RRIRNRPPRLPRPRPRPPIPPRP,-0.0646
8,RRIRGRPPRLPRPRPRPYLLPRP,-0.407
9,RRIRLRPPRLPRPRPRPKQEPRP,-0.00888
10,RRIRRRPPRLPRPRPRPSQAPRP,0.113
11,RRIRKRPPRLPRPRPRPPIPPRP,0.987
12,RRIRYRPPRLPRPRPRPTNMPRP,-0.541
13,RRIRYRPPRLPRPRPRPNFAPRP,0.137
14,RRIRSRPPRLPRPRPRPIHRPRP,-0.172
15,RRIRIRPPRLPRPRPRPALLPRP,0.178
16,RRIRTRPPRLPRPRPRPNAGPRP,0.0361
17,RRIRQRPPRLPRPRPRPDDEPRP,-0.0396
18,RRIRERPPRLPRPRPRPTFHPRP,-0.0533
19,RRIRRRPPRLPRPRPRPIMTPRP,0.125
20,RRIRKRPPRLPRPRPRPYMMPRP,-0.103
21,RRIRFRPPRLPRPRPRPIDAPRP,-0.289
22,RRIRGRPPRLPRPRPRPEVHPRP,0.141

row,Sequence,shrunken log2 fold change
1,RRIRERPPRLPRPRPRPQCLPRP,-0.116
2,RRIRWRPPRLPRPRPRPKRWPRP,0.441
3,RRIRYRPPRLPRPRPRPYGPPRP,-0.143
4,RRIRARPPRLPRPRPRPVKHPRP,0.0139
5,RRIRIRPPRLPRPRPRPRSIPRP,0.0721
6,RRIRNRPPRLPRPRPRPMAIPRP,-0.00192
7,RRIRMRPPRLPRPRPRPYFVPRP,0.0021
8,RRIRWRPPRLPRPRPRPGEKPRP,0.489
9,RRIRFRPPRLPRPRPRPSTYPRP,-0.802
10,RRIRWRPPRLPRPRPRPDPTPRP,0.691
11,RRIRRRPPRLPRPRPRPCMIPRP,-0.108
12,RRIRARPPRLPRPRPRPNRRPRP,0.366
13,RRIRNRPPRLPRPRPRPNGPPRP,-0.015
14,RRIRCRPPRLPRPRPRPAAYPRP,-0.101
15,RRIRRRPPRLPRPRPRPSSDPRP,0.0273
16,RRIRKRPPRLPRPRPRPTNLPRP,-0.0903
17,RRIRRRPPRLPRPRPRPPESPRP,0.26
18,RRIRCRPPRLPRPRPRPLKNPRP,-0.208
19,RRIRPRPPRLPRPRPRPSPDPRP,0.146
20,RRIRVRPPRLPRPRPRPMILPRP,-0.0833
21,RRIRRRPPRLPRPRPRPSGGPRP,0.318
